In article PMC7774954, “Interactomic affinity profiling by holdup assay: Acetylation and distal residues impact the PDZome-binding specificity of PTEN phosphatase” (PLoS ONE, 2020):
Blank lines part the entries; values can stand above or below the substance they belong to.

Key:
[1] = biological target: fRSK1, fluorescein-labelled RSK1 PBM peptide; test: fluorescence polarisation; direct: N-terminally fluorescein-labelled PBM peptide (tracer) with increasing amounts of MBP-PDZ; 384-well plates; triplicate; direct binding model (ProFit)
PTEN_Ac (human) = PTEN_Ac (human) (UniProt P60484); test: holdup assay; biotinylated PBM peptide saturating streptavidin resin (biotin resin as reference); tag-PDZ at 4 uM in crude E. coli lysate, 15 min, filtration, free tag-PDZ by capillary electrophoresis; singlicate; BI cut-off 0.20; BI converted into KD with the peptide concentration back-calculated from FP
PTEN_11 (human) = PTEN_11 (human) (UniProt P60484); test: as above
PTEN_KR (human) = PTEN_KR (human) (UniProt P60484); test: as above
[2] = biological target: f16E6, fluorescein-labelled HPV16 E6 PBM peptide (HPV16); test: fluorescence polarisation; direct: N-terminally fluorescein-labelled PBM peptide (tracer) with increasing amounts of MBP-PDZ; 384-well plates; triplicate; direct binding model (ProFit)
SNX27-1 (human) = test: fluorescence polarisation; competitive: 50 nM fluorescent tracer peptide pre-formed with the PDZ domain (>60-80% complex), unlabeled peptide added at 8 concentrations; 20 mM HEPES pH 7.5, 150 mM NaCl, 0.5 mM TCEP, 0.01% Tween 20; triplicate; apparent
[3] = biological target: SNTA1-1, PDZ domain of SNTA1 (human) (UniProt Q13424); test: fluorescence polarisation; competitive: pre-formed complex of PDZ domain (>60-80% complex) and 50 nM fluorescent tracer peptide, increasing amount of unlabeled PTEN peptide (8 concentrations); 20 mM HEPES pH 7.5, 150 mM NaCl, 0.5 mM TCEP, 0.01% Tween 20; triplicate; competitive binding model (ProFit); apparent
[4] = biological target: SNX27-1, PDZ domain of SNX27 (human) (UniProt Q96L92); test: as above
[5] = biological target: ARHGEF12-1, PDZ domain of ARHGEF12 (human) (UniProt Q9NZN5); test: as above
[6] = biological target: GOPC-1, PDZ domain of GOPC (human) (UniProt Q9HD26); test: as above
[7] = biological target: MAST1-1, PDZ domain of MAST1 (human) (UniProt Q9Y2H9); test: as above
[8] = biological target: SNTB1-1, PDZ domain of SNTB1 (human) (UniProt Q13884); test: as above
MAST1-1 (human) = test: fluorescence polarisation; competitive: 50 nM fluorescent tracer peptide pre-formed with the PDZ domain (>60-80% complex), unlabeled peptide added at 8 concentrations; 20 mM HEPES pH 7.5, 150 mM NaCl, 0.5 mM TCEP, 0.01% Tween 20; triplicate; apparent
MAST2-1 (human) = test: as above
[9] = biological target: HTRA1-1, PDZ domain of HTRA1 (human) (UniProt Q92743); test: fluorescence polarisation; competitive: pre-formed complex of PDZ domain (>60-80% complex) and 50 nM fluorescent tracer peptide, increasing amount of unlabeled PTEN peptide (8 concentrations); 20 mM HEPES pH 7.5, 150 mM NaCl, 0.5 mM TCEP, 0.01% Tween 20; triplicate; competitive binding model (ProFit); apparent
[10] = biological target: GRID2IP-2, second PDZ domain of GRID2IP (human) (UniProt A4D2P6); test: as above
[11] = biological target: MAST2-1, PDZ domain of MAST2 (human) (UniProt Q6P0Q8); test: as above
[12] = biological target: SNTG2-1, PDZ domain of SNTG2 (human) (UniProt Q9NY99); test: as above
[13] = biological target: fpRSK1, fluorescein-labelled phosphorylated RSK1 PBM peptide; test: fluorescence polarisation; direct: N-terminally fluorescein-labelled PBM peptide (tracer) with increasing amounts of MBP-PDZ; 384-well plates; triplicate; direct binding model (ProFit)
PTEN_13 (human) = PTEN_13 (human) (UniProt P60484); test: holdup assay; biotinylated PBM peptide saturating streptavidin resin (biotin resin as reference); tag-PDZ at 4 uM in crude E. coli lysate, 15 min, filtration, free tag-PDZ by capillary electrophoresis; singlicate; BI cut-off 0.20; BI converted into KD with the peptide concentration back-calculated from FP

SNTA1-1, PDZ domain of SNTA1 (human), sequence (Q13424 whole entry, the tested form may be a part): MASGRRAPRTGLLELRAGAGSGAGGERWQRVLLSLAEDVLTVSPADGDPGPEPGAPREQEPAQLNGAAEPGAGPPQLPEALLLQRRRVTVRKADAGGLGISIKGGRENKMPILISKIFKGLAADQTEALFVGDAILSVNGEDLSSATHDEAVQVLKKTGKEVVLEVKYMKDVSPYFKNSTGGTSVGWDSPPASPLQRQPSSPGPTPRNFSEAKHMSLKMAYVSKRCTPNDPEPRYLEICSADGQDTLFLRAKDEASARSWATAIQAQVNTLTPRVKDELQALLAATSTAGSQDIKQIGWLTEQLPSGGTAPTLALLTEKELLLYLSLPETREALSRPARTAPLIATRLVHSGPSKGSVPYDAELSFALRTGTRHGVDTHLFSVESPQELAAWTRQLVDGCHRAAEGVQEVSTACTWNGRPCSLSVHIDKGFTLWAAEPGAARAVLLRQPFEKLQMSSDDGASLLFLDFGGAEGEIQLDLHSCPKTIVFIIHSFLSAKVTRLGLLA
ARHGEF12-1, PDZ domain of ARHGEF12 (human), sequence (Q9NZN5 whole entry, the tested form may be a part): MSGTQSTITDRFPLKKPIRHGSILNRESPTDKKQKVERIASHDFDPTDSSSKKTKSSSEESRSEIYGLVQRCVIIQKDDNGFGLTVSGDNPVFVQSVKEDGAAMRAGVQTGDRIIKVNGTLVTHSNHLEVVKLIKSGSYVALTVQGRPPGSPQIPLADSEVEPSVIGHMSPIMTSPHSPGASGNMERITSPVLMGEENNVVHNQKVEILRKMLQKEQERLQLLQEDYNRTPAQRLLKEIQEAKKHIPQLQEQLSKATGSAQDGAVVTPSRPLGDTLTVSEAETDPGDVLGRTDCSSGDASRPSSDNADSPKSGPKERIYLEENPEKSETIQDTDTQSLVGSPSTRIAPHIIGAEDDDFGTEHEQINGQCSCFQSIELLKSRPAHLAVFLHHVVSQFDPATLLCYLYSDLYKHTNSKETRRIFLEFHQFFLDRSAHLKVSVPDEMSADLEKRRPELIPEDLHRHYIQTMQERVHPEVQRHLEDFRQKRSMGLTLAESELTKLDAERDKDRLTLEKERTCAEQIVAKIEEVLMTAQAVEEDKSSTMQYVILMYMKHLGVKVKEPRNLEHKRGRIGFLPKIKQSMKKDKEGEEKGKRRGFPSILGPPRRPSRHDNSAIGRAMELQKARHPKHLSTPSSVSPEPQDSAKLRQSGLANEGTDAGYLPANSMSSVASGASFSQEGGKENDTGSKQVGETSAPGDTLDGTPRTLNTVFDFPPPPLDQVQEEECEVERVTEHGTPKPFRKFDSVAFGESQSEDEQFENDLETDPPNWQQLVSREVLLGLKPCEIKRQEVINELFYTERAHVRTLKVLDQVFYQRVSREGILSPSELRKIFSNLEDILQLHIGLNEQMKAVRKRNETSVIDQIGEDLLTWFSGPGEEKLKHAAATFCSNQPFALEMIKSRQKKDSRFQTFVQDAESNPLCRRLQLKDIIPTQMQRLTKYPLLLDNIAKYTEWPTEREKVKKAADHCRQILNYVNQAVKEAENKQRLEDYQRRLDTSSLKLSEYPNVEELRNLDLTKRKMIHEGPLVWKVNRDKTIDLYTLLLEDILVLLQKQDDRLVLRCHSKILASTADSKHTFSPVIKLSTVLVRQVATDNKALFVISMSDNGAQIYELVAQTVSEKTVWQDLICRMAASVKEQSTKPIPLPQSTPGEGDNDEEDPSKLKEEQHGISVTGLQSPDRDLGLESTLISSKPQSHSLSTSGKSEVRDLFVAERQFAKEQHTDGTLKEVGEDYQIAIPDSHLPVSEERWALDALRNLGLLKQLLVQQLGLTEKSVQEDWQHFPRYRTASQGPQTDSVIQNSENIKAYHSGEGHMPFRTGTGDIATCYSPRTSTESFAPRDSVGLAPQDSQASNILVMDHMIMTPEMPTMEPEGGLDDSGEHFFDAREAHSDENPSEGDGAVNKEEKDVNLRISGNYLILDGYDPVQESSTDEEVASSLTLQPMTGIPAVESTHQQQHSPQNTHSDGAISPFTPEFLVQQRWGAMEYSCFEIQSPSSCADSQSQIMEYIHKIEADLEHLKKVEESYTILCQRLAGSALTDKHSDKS
SNTB1-1, PDZ domain of SNTB1 (human), sequence (Q13884 whole entry, the tested form may be a part): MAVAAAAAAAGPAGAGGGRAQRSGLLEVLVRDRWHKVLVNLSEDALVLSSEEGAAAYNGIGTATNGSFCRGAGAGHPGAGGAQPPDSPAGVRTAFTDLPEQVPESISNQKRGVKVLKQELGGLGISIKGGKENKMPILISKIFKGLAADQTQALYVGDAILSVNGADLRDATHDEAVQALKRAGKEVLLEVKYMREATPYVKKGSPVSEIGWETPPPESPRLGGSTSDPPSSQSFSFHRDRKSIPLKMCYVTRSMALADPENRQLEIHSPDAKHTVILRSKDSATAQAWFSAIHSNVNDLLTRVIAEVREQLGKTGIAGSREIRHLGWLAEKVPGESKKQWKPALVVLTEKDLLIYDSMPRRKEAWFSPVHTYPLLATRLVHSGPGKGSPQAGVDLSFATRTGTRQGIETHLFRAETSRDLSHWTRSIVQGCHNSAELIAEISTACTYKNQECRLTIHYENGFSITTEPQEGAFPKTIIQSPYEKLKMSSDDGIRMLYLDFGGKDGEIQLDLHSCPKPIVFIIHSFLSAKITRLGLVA
MAST1-1, PDZ domain of MAST1 (human), sequence (Q9Y2H9 whole entry, the tested form may be a part): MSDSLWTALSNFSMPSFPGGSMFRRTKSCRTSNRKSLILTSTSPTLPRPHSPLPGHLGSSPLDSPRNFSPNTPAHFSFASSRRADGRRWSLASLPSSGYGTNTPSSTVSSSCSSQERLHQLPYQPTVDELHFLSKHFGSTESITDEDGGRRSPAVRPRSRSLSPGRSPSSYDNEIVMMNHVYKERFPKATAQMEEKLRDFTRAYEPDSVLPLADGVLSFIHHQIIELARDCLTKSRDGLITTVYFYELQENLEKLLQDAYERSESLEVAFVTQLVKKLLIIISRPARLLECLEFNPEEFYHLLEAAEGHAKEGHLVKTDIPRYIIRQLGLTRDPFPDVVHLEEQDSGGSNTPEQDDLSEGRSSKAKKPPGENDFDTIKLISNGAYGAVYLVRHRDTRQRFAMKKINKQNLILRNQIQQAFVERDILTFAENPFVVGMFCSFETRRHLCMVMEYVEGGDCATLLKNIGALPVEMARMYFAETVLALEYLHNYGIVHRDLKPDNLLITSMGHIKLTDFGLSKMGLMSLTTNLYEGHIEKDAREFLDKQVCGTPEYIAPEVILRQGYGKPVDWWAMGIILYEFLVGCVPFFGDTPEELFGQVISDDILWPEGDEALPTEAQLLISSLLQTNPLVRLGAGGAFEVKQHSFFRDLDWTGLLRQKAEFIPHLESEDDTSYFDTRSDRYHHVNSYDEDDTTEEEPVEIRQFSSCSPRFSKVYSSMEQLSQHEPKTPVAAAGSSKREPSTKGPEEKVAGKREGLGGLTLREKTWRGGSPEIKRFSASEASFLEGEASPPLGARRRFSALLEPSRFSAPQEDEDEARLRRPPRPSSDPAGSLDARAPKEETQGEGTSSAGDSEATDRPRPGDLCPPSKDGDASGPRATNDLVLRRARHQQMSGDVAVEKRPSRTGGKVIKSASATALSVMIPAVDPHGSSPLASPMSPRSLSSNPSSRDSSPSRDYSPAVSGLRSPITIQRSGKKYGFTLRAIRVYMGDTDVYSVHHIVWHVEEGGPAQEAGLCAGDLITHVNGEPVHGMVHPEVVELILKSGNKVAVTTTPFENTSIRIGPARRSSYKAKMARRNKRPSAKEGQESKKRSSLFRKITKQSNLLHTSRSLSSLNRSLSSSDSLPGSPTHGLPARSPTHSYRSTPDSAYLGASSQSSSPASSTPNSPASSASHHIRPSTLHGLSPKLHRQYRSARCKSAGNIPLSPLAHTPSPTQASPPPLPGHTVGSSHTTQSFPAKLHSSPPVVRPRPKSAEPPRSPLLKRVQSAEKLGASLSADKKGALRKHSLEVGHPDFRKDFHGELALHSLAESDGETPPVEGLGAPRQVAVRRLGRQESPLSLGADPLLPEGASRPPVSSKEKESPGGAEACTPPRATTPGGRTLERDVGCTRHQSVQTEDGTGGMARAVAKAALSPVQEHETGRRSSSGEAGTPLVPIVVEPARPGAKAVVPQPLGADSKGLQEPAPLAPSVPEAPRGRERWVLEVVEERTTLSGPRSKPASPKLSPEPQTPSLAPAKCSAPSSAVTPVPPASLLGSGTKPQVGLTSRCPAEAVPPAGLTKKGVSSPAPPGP
HTRA1-1, PDZ domain of HTRA1 (human), sequence (Q92743 23-480): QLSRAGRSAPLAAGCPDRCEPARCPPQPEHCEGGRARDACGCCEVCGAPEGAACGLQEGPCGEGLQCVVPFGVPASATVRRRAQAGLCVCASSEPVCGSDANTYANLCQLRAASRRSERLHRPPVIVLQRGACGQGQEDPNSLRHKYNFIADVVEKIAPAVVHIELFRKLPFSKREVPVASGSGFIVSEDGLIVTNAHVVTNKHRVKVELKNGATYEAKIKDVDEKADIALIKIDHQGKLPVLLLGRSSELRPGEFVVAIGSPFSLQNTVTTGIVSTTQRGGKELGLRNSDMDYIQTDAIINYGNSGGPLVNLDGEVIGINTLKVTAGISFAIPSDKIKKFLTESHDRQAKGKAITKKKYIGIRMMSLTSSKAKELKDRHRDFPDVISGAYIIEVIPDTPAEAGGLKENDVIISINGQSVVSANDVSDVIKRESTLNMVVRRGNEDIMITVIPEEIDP
GRID2IP-2, second PDZ domain of GRID2IP (human), sequence (A4D2P6 279-356): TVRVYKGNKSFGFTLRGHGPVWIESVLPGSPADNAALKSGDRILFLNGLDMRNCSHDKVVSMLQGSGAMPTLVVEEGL

Substance: DLG1-2 (from UniProt Q12959 319-405) (domain or fragment)
- Kd (PTEN_Ac (human)): 36 µM

Substance: MAGI3-2 (from UniProt Q5TCQ9 410-492) (domain or fragment)
- Kd (PTEN_Ac (human)): 39 µM

Substance: MAST1-1 (domain or fragment)
- Kd (PTEN_11 (human)): 39 µM
- Kd (PTEN_KR (human)): 32 µM
- Kd (PTEN_Ac (human)): 26 µM

Substance: MAST1-1, PDZ domain of MAST1 (from UniProt Q9Y2H9 1-1570) (domain or fragment)
- Kd [2]: 7.52 µM

Substance: MAST2-1 (domain or fragment)
- Kd (PTEN_11 (human)): 13 µM
- Kd (PTEN_KR (human)): 7 µM
- Kd (PTEN_Ac (human)): 4 µM

Substance: MAST2-1, PDZ domain of MAST2 (from UniProt Q6P0Q8 1-1798) (domain or fragment)
- Kd [1]: 6.87 µM

Substance: MAST3-1 (domain or fragment)
- Kd (PTEN_11 (human)): 241 µM
- Kd (PTEN_KR (human)): 82 µM
- Kd (PTEN_Ac (human)): 85 µM

Substance: NHERF2-2 (from UniProt Q15599 150-230) (domain or fragment)
- Kd (PTEN_11 (human)): 35 µM

Substance: PARD3-3 (from UniProt Q8TEW0 590-677) (domain or fragment)
- Kd (PTEN_11 (human)): 160 µM

Substance: PTEN_13 (from UniProt P60484 391-403) (peptide)
- Kd (MAST1-1 (human)): 8 µM
- Kd (MAST2-1 (human)): 1 µM

Substance: PTEN_KR, 11-mer PTEN PDZ-binding motif peptide with K402R
- Kd [3]: 65.1 µM
- Kd [9]: 36.2 µM
- Kd [4]: 8.32 µM
- Kd [5]: 114 µM
- Kd [6]: 47.4 µM
- Kd [11]: 2.39 µM
- Kd [7]: 9.11 µM
- Kd [12]: 141 µM
- Kd [8]: 24.4 µM

Substance: PTPN13-2 (from UniProt Q12923 1368-1452) (domain or fragment)
- Kd (PTEN_11 (human)): 148 µM

Substance: SNTB2-1 (domain or fragment)
- Kd (PTEN_13 (human)): 64 µM

Substance: SNX27-1 (domain or fragment)
- Kd (PTEN_Ac (human)): 4 µM
- Kd (PTEN_13 (human)): 6 µM

Results, then the substance that gave them:

- Kd [1]: 3.96 µM
Substance: ARHGEF12-1, PDZ domain of ARHGEF12 (from UniProt Q9NZN5 1-1544) (domain or fragment)

- Kd [1]: 64.8 µM
Substance: HTRA1-1, PDZ domain of HTRA1 (from UniProt Q92743 23-480) (domain or fragment)

- Kd (SNX27-1 (human)): 14 µM
Substance: PTEN_11 (from UniProt P60484 393-403) (peptide)

- Kd [3]: 194 µM
- Kd [4]: 13.8 µM
- Kd [5]: 113 µM
- Kd [6]: 131 µM
- Kd [7]: 10.9 µM
- Kd [8]: 67 µM
Substance: PTEN_11, 11-mer wild-type PDZ-binding motif peptide of PTEN

- Kd [3]: 123 µM
- Kd [9]: 25.3 µM
- Kd [4]: 7.95 µM
- Kd [10]: 59.1 µM
- Kd [5]: 100 µM
- Kd [6]: 82.1 µM
- Kd [11]: 1.28 µM
- Kd [7]: 7.62 µM
- Kd [8]: 44.5 µM
Substance: PTEN_13, 13-mer wild-type PDZ-binding motif peptide of PTEN

- Kd [3]: 45.3 µM
- Kd [9]: 10.2 µM
- Kd [4]: 4.07 µM
- Kd [5]: 65.5 µM
- Kd [6]: 70.2 µM
- Kd [11]: 2.56 µM
- Kd [7]: 7.4 µM
- Kd [12]: 377 µM
- Kd [8]: 14.5 µM
Substance: PTEN_Ac, 11-mer PTEN PDZ-binding motif peptide acetylated at K402

- Kd (SNX27-1 (human)): 8 µM
Substance: PTEN_KR (from UniProt P60484 393-403) (peptide)

- Kd (PTEN_Ac (human)): 10 µM
Substance: PTPN13-4 (from UniProt Q12923 1788-1868) (domain or fragment)

- Kd [13]: 20.4 µM
Substance: SNTA1-1, PDZ domain of SNTA1 (from UniProt Q13424 1-505) (domain or fragment)

- Kd [13]: 3.98 µM
Substance: SNTB1-1, PDZ domain of SNTB1 (from UniProt Q13884 1-538) (domain or fragment)

- Kd [13]: 21.9 µM
Substance: SNTG2-1, PDZ domain of SNTG2 (from UniProt Q9NY99 1-539) (domain or fragment)
